In paper PMC9915066:

Target: SpyTag-fused glucose dehydrogenase V149C/G190C (Streptococcus pyogenes | Aspergillus flavus)

Substance: CYTc-SpyCatcher
- Imax^app (nA): direct electron transfer current of the complex-immobilized gold electrode on successive glucose addition, chronoamperometry at +400 mV vs. Ag/AgCl; ST-GDH alone hardly gave a response: 55 nA
